# Residue numbers refer to the chain shown, from its start.
# B1: h7E6-L-TG1-vcMMAD: h7E6_L hIgG1 with TG1 tag conjugated with AcLys-vcMMAD (conjugate)
# VH: QVQLQESGPGLVKPSETLSLTCTVSGGSISSYGVHWIRQPPGKGLEWIGVIWTGGSTDYNSALMSRVTISVDTSKNQFSLKLSSVTAADTAVYYCARDGDYDRYTMDYWGQGTLVTVSS
# VL: DIVMTQSPDSLAVSLGERATINCRASKSVSTSLYSYMHWYQQKPGQPPKLLIYLASNLESGVPDRFSGSGSGTDFTLTISSLQAEDVAVYYCQHSRELPYTFGQGTKLEIK
# B2: h7E6-SVGN-TG1-vcMMAD: h7E6_SVGN hIgG1 with TG1 tag conjugated with AcLys-vcMMAD (conjugate)
# VH: B1 VH with G54S, S56V, S65G
# VL: B1 VL with L33N
# B3: h7E6-WT-TG1-vcMMAD: h7E6-WT hIgG1 with TG1 tag conjugated with AcLys-vcMMAD (conjugate)
# VH: B1 VH
# VL: B1 VL with L33G
# B4: h7E6-SVGL-TG1-vcMMAD: h7E6_SVGL hIgG1 with TG1 tag conjugated with AcLys-vcMMAD (conjugate)
# VH: B1 VH with G54S, S56V, S65G
# VL: B1 VL
# B5: h7E6-N-TG1-vcMMAD: h7E6_N hIgG1 with TG1 tag conjugated with AcLys-vcMMAD (conjugate)
# VH: B1 VH
# VL: B1 VL with L33N
# B6: h7E6: humanized anti-Trop-2 antibody, VL SEQ ID NO: 3, VH SEQ ID NO: 4 (antibody, V domains shown)
# VH: B1 VH
# VL: B1 VL with L33G
# B7: h7E6_L: humanized anti-Trop-2 antibody comprising SEQ ID NOs: 4 and 6 (antibody, V domains shown)
# VH: B1 VH
# VL: B1 VL
# B8: h7E6_N: humanized anti-Trop-2 7E6 antibody, presumably VH SEQ ID NO: 4 with VL_N SEQ ID NO: 7 (antibody, V domains shown)
# VH: B1 VH
# VL: B1 VL with L33N
# B9: h7E6_SVGN: humanized anti-Trop-2 antibody, VL SEQ ID NO: 7, VH SEQ ID NO: 5 (antibody, V domains shown)
# VH: B1 VH with G54S, S56V, S65G
# VL: B1 VL with L33N
# Test system: SW620 cells (Trop-2 non-expressing)
# Assay: Cytotoxicity of ADCs (CellTiter-Glo), SW620
# Type: cell-based
# Details: Table 12; SW620 (Trop-2−); 96 hours after treatment
# Experimental: Target expressing (A431, BxPC3, CAPAN-2 and Colo205) or non-expressing (SW620) cells were seeded on white walled clear bottom plates at 2000 cells/well for 24 hours before treatment. Cells were treated with 4 fold serially diluted antibody-drug conjugates in triplicates. Cell viability was determined by CellTiter-Glo® Luminescent Cell Viability Assay 96 (Promega, Madison Wis.) 96 hours after treatment. Relative cell viability was determined as percentage of untreated control. IC50 was calculated by Prism software.
# 2-methylalanyl-N-[(3R,4S,5S)-3-methoxy-1-{(2S)-2-[(1R,2R)-1-methoxy-2-methyl-3-oxo-3-{[(1S)-2-phenyl-1-(1,3-thiazol-2-yl)ethyl]amino}propyl]pyrrolidin-1-yl}-5-methyl-1-oxoheptan-4-yl]-N-methyl-L-valinamide is a novel auristatin, as described in U.S. Application Nos. 61/561,255 and 61/676,423. Method of conjugating Trop-2 antibodies using transglutaminase tags is described in Example 9. Target expressing or non-expressing (SW620) cells were seeded on white walled clear bottom plates at 2000 (A431, BxPC3, NCI-H292, NCI-H1650, MDA-MB-468 and SW620), 2500 (Calu-3) or 3000 (OVCAR3 and SKBR3) cells per well for 24 hours before treatment. Cells were treated with 4 fold serially diluted antibody-drug conjugates in triplicates. Cell viability was determined by CellTiter-Glo® Luminescent Cell Viability Assay 96 (Promega, Madison, Wis.) 96 hours after treatment. Relative cell viability was determined as percentage of untreated control. IC50 was calculated by GraphPad Prism 5 software and expressed as concentration (nM) of total Ab.
row,Molecule,Ab-IC50 [µg/mL]
1,B1,8.535
2,B2,10.410
3,B3,10.330
4,B4,10.800
5,B5,11.150

# Same assay, conditions: Table 12; SW620 (Trop-2−); 96 hours after treatment; read-out: Ab-IC50
row,Molecule,IC50 [nM]
1,B1,56.9
2,B2,69.4
3,B3,68.9
4,B4,72
5,B5,74.3

# Biological target: T1, human Trop-2-hFc (Homo sapiens, UniProt P09758)
# T1 construct: Monomeric Trop-2 extracellular domain prepared from papain digestion of Trop-2-Fc fusion protein
# T1 sequence (P09758 27-274 limits assumed): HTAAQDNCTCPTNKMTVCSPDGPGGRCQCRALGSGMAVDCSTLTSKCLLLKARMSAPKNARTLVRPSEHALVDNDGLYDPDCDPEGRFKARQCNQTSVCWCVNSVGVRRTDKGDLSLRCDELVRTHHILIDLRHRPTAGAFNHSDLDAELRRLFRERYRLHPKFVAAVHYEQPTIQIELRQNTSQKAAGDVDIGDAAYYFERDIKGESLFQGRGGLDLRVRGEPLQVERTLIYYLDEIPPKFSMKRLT
# Assay: Biacore SPR affinity of chimeric and humanized 7E6 Fab, human Trop-2
# Type: binding
# Details: recombinant Fab fragments injected over captured human Trop-2-hFc
# Source text: (§1) The human Trop-2-hFc or cynomolgus monkey Trop-2-hFc proteins were captured on the CM5 EDA chip 37 sensor surface coupled with anti-human Fc.
Molecule,ka [M⁻¹ s⁻¹],kd [s⁻¹]
B6,139000,0.00294
B7,130000,0.00015

# Test system: SW620 (Trop-2 −) cells
# Assay: Flow cytometry binding, SW620 cells
# Type: cell-based
# Details: Table 10, 300,000 cells, 1 ug antibody
# Experimental: For A431 cell staining, 200,000 cells were incubated with 0.5 ug antibody in 100 uL binding buffer (PBS (Phosphate Buffered Saline)+0.5% BSA (Bovine Serum Albumin)), followed by incubation with Dylight488-conjugated goat anti-human (Fab′)2-specific secondary antibody from Jackson immunoresearch Laboratories (West Grove, Pa.). For Colo205 and SW620 cells, 300,000 cells were used with 1 ug of primary antibody, followed by AlexaFluor 647 anti-human (Fab′)2-specific secondary antibody from Jackson immunoresearch Laboratories (West Grove, Pa.).
# Similar to Example 7a), binding of chimeric mouse and humanized anti-Trop-2 6G11 antibodies (expressed in human IgG1 subtype) were assessed on Trop-2 expressing (A431 and Colo205) and non-expressing (SW620) cells by flow cytometry. 300,000 cells were used with 1 ug of primary antibody, followed by AlexaFluor 647 anti-human (Fab′)2-specific secondary antibody.
Molecule,% positive [%],MFI
B6,2.1,143
B7,2.5,158
B8,2.3,151
B9,2.5,140

# Test system: cynomolgus monkey Trop-2-hFc
# Assay: Biacore SPR affinity of chimeric and humanized 7E6 Fab, cynomolgus Trop-2
# Type: binding
# Details: recombinant Fab fragments injected over captured cynomolgus monkey Trop-2-hFc
# Source text: as §1
Molecule,ka [M⁻¹ s⁻¹],kd [s⁻¹]
B6,144000,0.00635
B7,126000,0.000335
